US20160108416

Assays:
atToc33 (At1g02280) = target: T1, atToc33 (At1g02280) (UniProt O23680)
T1 sequence: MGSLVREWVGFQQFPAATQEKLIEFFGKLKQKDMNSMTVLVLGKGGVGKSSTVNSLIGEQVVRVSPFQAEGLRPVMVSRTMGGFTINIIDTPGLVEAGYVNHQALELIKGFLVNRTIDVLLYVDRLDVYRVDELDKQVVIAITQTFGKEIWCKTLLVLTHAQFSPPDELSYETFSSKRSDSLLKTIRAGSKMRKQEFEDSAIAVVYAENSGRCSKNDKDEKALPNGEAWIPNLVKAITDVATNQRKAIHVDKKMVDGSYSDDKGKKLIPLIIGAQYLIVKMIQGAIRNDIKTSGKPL

atToc75-III (At3g46740) = target: T2, atToc75-III (At3g46740) (UniProt Q9STE8)
T2 sequence: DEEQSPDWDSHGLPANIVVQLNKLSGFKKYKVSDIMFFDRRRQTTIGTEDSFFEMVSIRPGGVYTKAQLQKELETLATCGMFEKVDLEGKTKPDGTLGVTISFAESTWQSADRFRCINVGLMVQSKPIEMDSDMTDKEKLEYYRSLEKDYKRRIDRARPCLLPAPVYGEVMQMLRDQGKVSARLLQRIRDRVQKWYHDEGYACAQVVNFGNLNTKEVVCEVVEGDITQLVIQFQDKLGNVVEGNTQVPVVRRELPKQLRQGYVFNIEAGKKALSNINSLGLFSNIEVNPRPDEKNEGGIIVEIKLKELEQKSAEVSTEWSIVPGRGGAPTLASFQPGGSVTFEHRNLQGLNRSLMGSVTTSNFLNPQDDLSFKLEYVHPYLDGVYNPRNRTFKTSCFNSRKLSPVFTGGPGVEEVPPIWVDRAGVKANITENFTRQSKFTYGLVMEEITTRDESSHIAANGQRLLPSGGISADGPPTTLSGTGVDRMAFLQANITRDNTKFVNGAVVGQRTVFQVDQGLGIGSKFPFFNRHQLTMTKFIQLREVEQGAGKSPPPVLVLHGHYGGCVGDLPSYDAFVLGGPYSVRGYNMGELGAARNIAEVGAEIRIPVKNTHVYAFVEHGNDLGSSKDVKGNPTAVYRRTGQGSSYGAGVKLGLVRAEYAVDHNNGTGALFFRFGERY

atToc159 (At4g02510) = atToc159 (At4g02510) (UniProt O81283)
Sequence of UniProt O81283 (O81283 whole entry): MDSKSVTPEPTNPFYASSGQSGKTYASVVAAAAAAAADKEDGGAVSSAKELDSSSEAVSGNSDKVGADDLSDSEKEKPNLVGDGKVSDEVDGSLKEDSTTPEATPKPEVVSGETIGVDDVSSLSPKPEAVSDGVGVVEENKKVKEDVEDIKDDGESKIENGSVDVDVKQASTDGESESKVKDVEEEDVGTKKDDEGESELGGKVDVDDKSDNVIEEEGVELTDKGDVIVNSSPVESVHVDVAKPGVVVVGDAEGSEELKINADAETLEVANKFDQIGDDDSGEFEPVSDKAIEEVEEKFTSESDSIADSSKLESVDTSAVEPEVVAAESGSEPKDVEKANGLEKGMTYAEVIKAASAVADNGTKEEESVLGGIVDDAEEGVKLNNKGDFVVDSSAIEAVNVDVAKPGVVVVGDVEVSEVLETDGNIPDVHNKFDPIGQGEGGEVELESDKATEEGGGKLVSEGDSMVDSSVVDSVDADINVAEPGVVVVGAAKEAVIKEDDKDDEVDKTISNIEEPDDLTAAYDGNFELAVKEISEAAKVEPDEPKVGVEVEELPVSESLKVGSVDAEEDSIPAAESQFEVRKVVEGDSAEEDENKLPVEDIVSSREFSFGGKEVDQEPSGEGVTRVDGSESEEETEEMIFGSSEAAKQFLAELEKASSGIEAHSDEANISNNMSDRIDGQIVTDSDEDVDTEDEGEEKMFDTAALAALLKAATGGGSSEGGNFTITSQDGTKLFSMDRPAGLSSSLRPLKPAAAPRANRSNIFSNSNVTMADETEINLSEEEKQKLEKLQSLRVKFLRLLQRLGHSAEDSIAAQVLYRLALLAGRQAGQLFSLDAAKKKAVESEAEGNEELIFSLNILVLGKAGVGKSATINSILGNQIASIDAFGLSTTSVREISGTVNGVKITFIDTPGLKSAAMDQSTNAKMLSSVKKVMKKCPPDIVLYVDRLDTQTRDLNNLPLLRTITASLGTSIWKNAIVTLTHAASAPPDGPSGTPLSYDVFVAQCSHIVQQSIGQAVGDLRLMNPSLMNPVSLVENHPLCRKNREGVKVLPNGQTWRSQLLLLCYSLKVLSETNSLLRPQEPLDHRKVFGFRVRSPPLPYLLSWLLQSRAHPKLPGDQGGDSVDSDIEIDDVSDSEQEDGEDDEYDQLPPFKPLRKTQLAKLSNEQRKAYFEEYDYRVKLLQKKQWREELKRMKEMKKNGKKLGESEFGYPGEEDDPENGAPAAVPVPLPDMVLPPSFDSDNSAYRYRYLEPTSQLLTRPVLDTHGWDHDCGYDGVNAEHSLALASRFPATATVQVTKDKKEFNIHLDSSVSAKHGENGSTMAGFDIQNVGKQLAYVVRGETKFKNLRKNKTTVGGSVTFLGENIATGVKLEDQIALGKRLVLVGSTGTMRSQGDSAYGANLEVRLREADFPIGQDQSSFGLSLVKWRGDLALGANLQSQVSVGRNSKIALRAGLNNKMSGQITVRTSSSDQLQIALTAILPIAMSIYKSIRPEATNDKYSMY

B1: GST-SP1flex (SP1 intermembrane space and cytosolic domains joined by a flexible linker, N-terminal GST tag) (enzyme, part only; not given: N-terminal GST tag)
chain, part: RSSGRDAEVLETVTRVNQLKELAQLLELDSKILPFIVAVSGRVGSETPIKCEHSGIRGVIVEETAEQHFLKHNETGSWVQDSALMLSMSKEVPWFLDDGTSRVHVMGARGATGFALTVGSEVFEESGRSLVRGTLDYLQGLKMLGVKRIERVLPTGIPLTIVGEAVKDDIGEFRIQKPDRGPFYVSSKSLDQLISNLGKWSRLYKIDSVLERRRRRQLQKRVLDAAAKRAELESEGSNGTRESISDSTKKEDAVPDLCVICLEQEYNAVFVPCGHMCCCTACSSHLTSCPLCRRRIDLAVKTYRH
B1 was tested, and the “In vitro ubiquitination (high-molecular-weight species of radiolabelled substrate)” value (from here on “In vitro ubiquitination”) (atToc33 (At1g02280)) was “for each TOC substrate the extent of ubiquitination was enhanced in the presence of SP1”, the “In vitro ubiquitination” value (atToc75-III (At3g46740)) was “for each TOC substrate the extent of ubiquitination was enhanced in the presence of SP1” and the “In vitro ubiquitination” value (atToc159 (At4g02510)) was “for each TOC substrate the extent of ubiquitination was enhanced in the presence of SP1”.
